Experimental data: US20190144517A1 (SHANGHAI JW INFLINHIX, published 2019)

Molecular target: T1, TNF receptors on L929 cells (mouse, UniProt P25118 30-454)
T1 construct: whole, on cells; The result text says 'TNF receptors'; the staining used an anti-TNFR1 antibody; also called cell surface receptors; TNFR1
T1 sequence (looked up): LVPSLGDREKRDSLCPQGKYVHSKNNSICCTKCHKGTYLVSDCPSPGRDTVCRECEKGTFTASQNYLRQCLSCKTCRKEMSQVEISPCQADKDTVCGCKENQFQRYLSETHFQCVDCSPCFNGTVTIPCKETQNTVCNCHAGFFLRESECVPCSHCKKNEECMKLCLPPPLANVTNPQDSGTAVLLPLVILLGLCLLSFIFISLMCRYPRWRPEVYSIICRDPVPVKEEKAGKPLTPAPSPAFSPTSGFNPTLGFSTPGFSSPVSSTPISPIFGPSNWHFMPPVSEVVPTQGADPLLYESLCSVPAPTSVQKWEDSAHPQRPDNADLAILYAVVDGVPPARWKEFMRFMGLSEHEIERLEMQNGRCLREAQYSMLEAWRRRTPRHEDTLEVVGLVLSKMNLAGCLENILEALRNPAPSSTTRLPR
Test: confocal immunofluorescence on L929 cells
Experimental: The cells were fixed with 4% paraformaldehyde (PBS formulation) were for 10 minutes, blocked with phosphate buffer containing 0.5% BSA and 0.1% cold water fish gelatin for 15 minutes, and then incubated with rabbit anti-TNFR1 antibody (Abeam) for 1 hour. The cells were washed with PBS and then incubated with the relevant secondary antibody coupled to Alexa Fluor 488 or Alexa Fluor 568 (Invitrogen). Then the sample washed with PBS was mounted with Gelvatol/DABCO (Sigma-Aldrich). DNA was counterstained with DAPI (Sigma-Aldrich). All samples were analyzed by fluorescence microscopy at 60× using Nikon Eclipse 80i. Images were taken with NIS-Elements AR3.0 software using Hamamatsu camera.

binding result: no binding (tested: 2 µg/ml)
B1: monoclonal antibody 244-12 (antibody, mouse IgG2b, kappa, V domains shown)
VH: QIQLVQSGPELKKPGETVKISCKASGYTFTNYGMNWVKQAPGKGLKWMGWINTYTGEPTYADDFKGRFAFSLETSANTAYLQINNLRNEGMATYFCARHYRYAWFPYWGQGTLVTVSA
VL: DIQMTQSPASLSASVGETVTITCRASGNIHIYLAWYQQKQGKSPQLLVYNAKTLADGVPSRFSGSGSGTQYSLKINSLQPEDFGSYYCQHFWSIPWTFGGGTKLEIKR
notes: It was detected with an anti-mouse IgG secondary antibody
